Experimental data as given in US20040014209A1, “Compositions and methods for modulating cell differentiation” (priority 2002, published 2004).

Key:
[1] = test system: DMZ explants; experiment: Wnt cDNA overexpression in DMZ explants, Nkx2.5 and TnIc by in situ hybridization; format: cell-based, Xenopus; settings: plasmid cDNA injection into dorsal blastomeres; for Incidence of explants expressing Nkx2.5: stage 23; for Incidence of explants expressing TnIc: stage 30
Source text: If the normal function of Wnt antagonism in vivo is to induce cardiogenic mesoderm, then overexpression of Wnt proteins should block cardiogenesis in dorsal mesoderm. Four Wnt genes are known to be expressed during gastrulation: Wnt3A, Wnt5A, Wnt8, and Wnt11. Expression of Wnt8 is normally excluded from the organizer region, whereas Wnt 3A and Wnt11 are expressed dorsally and Wnt5A is found diffusely throughout the ectoderm (Christian and Moon 1993; Ku and Melton 1993; Moon et al. 1993; Du et al. 1995; McGrew et al. 1997). We injected Wnt cDNAs into the two dorsal blastomeres of a four-cell embryo and dissected DMZ explants encompassing the organizer and heart primordia at stage 10 (FIG. 10A). Plasmid injections were performed to avoid perturbation of Nieuwkoop center activity that can occur on expression of certain Wnts before the midblastula transition (Smith and Harland 1991; Sokol et al. 1991). Explants were cultured to either stage 23 or stage 30, at which time they were examined for the expression of Nkx2.5 or TnIc.
(§1) Marginal zone explants were dissected at stage 10. Those explants to be examined by RT-PCR for expression of heart field marker- and heart muscle-specific genes were cultured until sibling embryos were stage 30. In situ hybridization was performed on explants cultured to the equivalent of stage 23 or stage 30. Explants to be scored for formation of beating hearts were maintained until the equivalent of stage 41.
(§2) mRNA was transcribed from pSP35-chd, pSP64-ngn, pCS2-DKK1, pCS2-Crescent, pCS2-GSK3, pCS2-WIF, pCS2-dnXwnt8, pCS2-szl, and pXT7-FrzA using the SP6 and T7 mMessage mMachine kits (Ambion). All cDNAs used encode Xenopus proteins except those for Wnt1 and crescent, which encode chick isoforms. The Xenopus form of crescent was identified while this manuscript was in preparation (Pfeffer et al. 1997; Pera and De Robertis 2000; Shibata et al. 2000) and functions identically to the chick isoform in our assays. Xenopus and chick Crescent share 88% amino acid positional identity within the cysteine-rich domain. Injections were performed in 3% Ficoll in 1×MMR. Embryos were injected equatorially into the two ventral or two dorsal blastomeres at the four-cell stage to target expression to the ventral or dorsal marginal zone. The amount of mRNA injected is given in the text. For plasmid cDNA injections, 75 pg of pCS2-Xwnt3A, pCS2-Xwnt5A, and pCSKA-Xwnt8 and 100 pg of pCS2-cWnt11 supercoiled plasmid constructs were injected.
In situ hybridization was performed according to the protocol of Harland (1991). Digoxygenin-labeled probes were transcribed from the following linearized plasmids: pGEM-XNkx2.5 (XbaI, T7 polymerase) and pBS-TnIc (NotI, T7).

[2] = molecular target: mWnt-3a (UniProt P27467); experiment: cell-based or functional assay
mWnt-3a, sequence (P27467 19-352 limits assumed): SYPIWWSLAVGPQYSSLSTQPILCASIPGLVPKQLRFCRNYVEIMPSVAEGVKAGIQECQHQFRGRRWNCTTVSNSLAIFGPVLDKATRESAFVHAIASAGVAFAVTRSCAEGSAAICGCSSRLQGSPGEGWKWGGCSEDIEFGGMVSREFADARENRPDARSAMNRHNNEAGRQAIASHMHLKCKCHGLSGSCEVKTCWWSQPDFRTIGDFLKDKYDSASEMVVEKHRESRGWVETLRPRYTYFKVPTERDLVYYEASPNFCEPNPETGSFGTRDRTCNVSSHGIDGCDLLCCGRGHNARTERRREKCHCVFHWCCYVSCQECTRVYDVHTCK

[3] = test system: APMEE explants; experiment: APMEE explant culture, cardiac gene expression by RT-PCR; format: cell-based, chick; settings: noggin administration to APMEE explants
[4] = test system: ventral marginal zone (VMZ) explants; experiment: VMZ explant assay: mRNA injection, cardiac-specific gene expression and beating; format: cell-based, Xenopus laevis
Protocol: In a modification of this assay (FIG. 6A), we targeted mRNAs encoding Wnt and BMP antagonists to VMZ tissue by microinjection into the equatorial region of both ventral blastomeres of four-cell stage embryos. VMZ explants were isolated at stage 10, cultured, and assayed at stage 30 by RT-PCR for cardiac-specific gene expression.
Embryos were fertilized in vitro, dejellied in 2% cysteine-HCl (pH 7.8), and maintained in 0.1×MMR. Explant dissections were performed in 0.75×MMR using an eyelash knife. Embryos were staged according to Nieuwkoop and Faber (1994).
as §1, §2
RT-PCR was performed as described in Schneider and Mercola (1999). Twenty-five cycles were performed at an annealing temperature of 55° C., unless otherwise noted. Expression of EF1α was used as a positive control for the reverse transcriptase reaction. The following additional primers were used: XNkx2.5+, […] (SEQ ID NO: 7); XNkx2.5−, […] (SEQ ID NO: 8); M. actin+, […] (SEQ ID NO: 9); M. actin−, […] (SEQ ID NO: 10) (22 cycles); TnIc+, […] (SEQ ID NO: 11); TnIc−, […] (SEQ ID NO: 12); MHCα+, […] GTTCCG (SEQ ID NO: 13); MHCα−, […] (SEQ ID NO: 14); Tbx5+, […] (SEQ ID NO: 15); Tbx5−, […] (SEQ ID NO: 16) (27 cycles); XNkx2.10+, […] (SEQ ID NO: 17); and XNkx2.10−, […] (SEQ ID NO: 18) (59° C., 28 cycles).
A secreted version of the C-terminal fragment was made by fusing the secretory region of human Dkk1 to the C-terminal region cysteine rich region, as described above. This protein is referred to as “C1.” Briefly, the HindIII-Asp718 C-terminal fragment of human Dkk1 (SEQ ID NO: 1) was ligated to the sequence encoding the secretory signal of Dkk1 and cloned into a vector permitting in vitro transcription. As a control, full length Dkk1 was used. RNA was prepared in vitro from the vector as described above. The RNA encoded a polypeptide comprising amino acids 158-266 of SEQ ID NO: 2. The RNA was then injected into noncardiogenic frog embryonic mesoderm, as described above and in Schneider and Mercola (2001) Genes & Dev. 15:304.

[5] = test system: murine embryonic stem (ES) cells; experiment: Cardiac differentiation of ES cells; format: cell-based
Protocol: Full length human Dkk1 (SEQ ID NO: 2) was expressed in host cells and incubated with murine embryonic stem (ES) cells. ES cells were lightly trypsinized, re-plated on petri plastic and cultured for 4 days. During this time, the cells cluster and the mesodermal marker brachyury becomes expressed. Cells were then trypsinized lightly and transferred to gelatin-coated plates with or without recombinant Dkk1 and cultured at 37° C. Cardiomyocyte differentiation of ES cells in the absence of Dkk1 occurs at 13-14 days. ES cells incubated with Dkk1 differentiated into cardiomyocytes at 8-9 days (see FIG. 21).
Cells were grown on gelatin-coated plates without LIF for 2d, then allowed to aggregate on petri dish plastic for 2d, aggregates were then dispersed by mild trypsinization and plated onto gelatin-coated plates with rDkk1- or rC1-conditioned medium or control conditioned medium lacking rDkk for duration of experiment. Presence of beating foci was scored on days 8-14. Instances of beating foci presented as “beating”. Precocious beating sometimes occurred at day 8.

[6] = test system: stage 7 chick embryos; experiment: Cell pellet implantation into stage 7 chick embryos in New culture (heart looping, DiI tracing, in situ hybridization); format: in vivo

With Wnt3A as the molecule, how does the “Incidence of explants expressing Nkx2.5” value [1] read?
Its value is 45.6%.

What about the “Incidence of explants expressing TnIc” value [1] of the same molecule?
Its value is 24.2%.

With chick Crescent as the molecule, how does the Wnt-induced expression of siamois in Xenopus animal caps (RT-PCR) [2] read?
The Wnt-induced expression of siamois in Xenopus animal caps (RT-PCR) was 3 fold.

B1: Noggin: BMP antagonist; noggin-conditioned medium from CHO cells or injected noggin mRNA (protein, UniProt P49011 20-222, looked up)
Noggin: RIDQGGCQHYLHIRPAPSENLPLVDLIEHPDPIYDPKEKDLNETLLRTLMVGHFDPNFMATILPEERLGVEDLGELDLLLRQKPSGAMPAEIKGLEFYEGLQSKKHRLSKKLRRKLQMWLWSQTFCPVLYTWNDLGTRFWPRYVKVGSCYSKRSCSVPEGMVCKAAKSMHLTILRWRCQRRVQQKCAWITIQYPVISECKCSC
B1 was tested. Which “APMEE explants in which cardiogenesis was blocked (number of explants)” value [3] did it give?
Its value is 10 out of 14.

And the “mRNA dose inducing muscle actin” value ([4]; VMZ explants)?
The value was ≥ 5 pg.

And the “mRNA dose at which explants were unable to survive” value ([4]; extreme morphogenetic movements of VMZ explants)?
Its value is > 50 pg.

What about the “Heart-specific gene expression (TnIc, MHCα)” value ([4]; mRNA injected ventrally at four-cell stage, VMZ explants, RT-PCR stage 30) of the same molecule?
The value was “did not induce specific markers of cardiogenesis”.

B2: Wnt11: expressed from injected pCS2-cWnt11 plasmid (protein, UniProt P49339 25-354, looked up)
Protein Wnt-11: IKWIALSKTPSSLALNQTQHCKQLEGLVVSQVQLCRSNLELMQTIIQAAREVIKTCRKTFSDMRWNCSSIELAPNYLLDLERGTRESAFVYALSAAAISHTIARACTTGDLPGCSCGPIPGETPGPGYRWGGCADNLNYGLIMGSKFSDAPMKMKKSGSQANKLMHLHNSEVGRQVLKASLEMKCKCHGVSGSCSIKTCWKGLQELRDIALDLKNKYLSATKVVHRPMGTRKYLVPKDIDIRPVKETELIYLQSSPDFCMKNEKVGSHGTQDRQCNKTSNGSDSCDLMCCGRGYNPYMDKVVERCHCKYHWCCYVTCKKCERTVERYVCK
Which “Incidence of explants expressing Nkx2.5” value [1] does the source give for B2 here?
The value was 94.1%.

What about the “Incidence of explants expressing TnIc” value [1] of the same molecule?
Its value is 83.1%.

B3: Dkk1: Full length human Dkk1 (SEQ ID NO: 2), recombinant, expressed in host cells (protein, UniProt O94907 1-266, looked up)
chain: MMALGAAGATRVFVAMVAAALGGHPLLGVSATLNSVLNSNAIKNLPPPLGGAAGHPGSAVSAAPGILYPGGNKYQTIDNYQPYPCAEDEECGTDEYCASPTRGGDAGVQICLACRKRRKRCMRHAMCCPGNYCKNGICVSSDQNHFRGEIEETITESFGNDHSTLDGYSRRTTLSSKMYHTKGQEGSVCLRSSDCASGLCCARHFWSKICKPVLKEGQVCTKHRRKGSHGLEIFQRCYCGEGLSCRIQKDHHQASNSSRLHTCQRH
modifications: full-length
B3 was tested. Which “myosin light chain (MLC2a) mRNA” value ([5]; PCR, relative to ES cells not incubated with Dkk1) did it give?
Its value is “elevated myosin light chain (MLC2a) mRNA”.

What about the “Beating, Nkx2.5 and contractile protein expression” value ([5]; by comparison with ES cells not incubated with Dkk1) of the same molecule?
Its value is “early beating, an increased number of beating foci, an increased Nkx2.5 expression and increased contractile protein expression”.

And the “Time to cardiomyocyte differentiation of ES cells” value ([5]; recombinant Dkk1, 13-14 days in the absence of Dkk1)?
The value was 8 to 9 days.

B4: Wnt8: expressed from injected pCSKA-Xwnt8 plasmid (protein)
chain: AWSVNNFLMTGPKAYLTYSASVAVGAQNGIEECKYQFAWERWNCPESTLQLATHNGLRSATRETSFVHAISSAGVMYTLTRNCSMGDFDNCGCDDSRNGRIGGRGWVWGGCSDNAEFGERISKLFVDGLETGQDARALMNLHNNEAGRLAVKETMKRTCKCHGISGSCSIQTCWLQLAEFRDIGNHLKIKHDQALKLEMDKRKMRSGNSADNRGAIADAFSSVAGSELIFLEDSPDYCLKNISLGLQGTEGRECLQSGKNLSQWERRSCKRLCTDCGLRVEEKKTEIISSCNCKFHWCCTVKCEQCKQVVIKHFCARRERDSNMLNTKRKNRGHRR
How did the “Incidence of explants expressing Nkx2.5” value [1] turn out when B4 was run?
The value was 19.9%.

And the “Incidence of explants expressing TnIc” value [1]?
Its value is 41.1%.

B5: Wnt5A: expressed from injected pCS2-Xwnt5A plasmid (protein, UniProt P31286 41-380, looked up)
Protein Wnt-5a: VVESSSWWSLGMNPVQMPEVYIIGAQPLCSQLSGLSQGQKKLCQLYQDHMQFIGDGAKTGIKECQYQFRHRRWNCSTVDNTSVFGRVMQIGSRETAFTYAISAAGVVNAVSRACREGELSTCGCSRAARPKDLPRDWLWGGCGDNLDYGYRFAKEFVDAREREKIHQKGSYESSRIMMNLHNNEAGRRAVSTLADVACKCHGVSGSCSLKTCWLQLADFRKVGDHLKEKYDSAGAMKLNTRGKLVQVNNKFNSPTMNDLVYIDPSPDYCVHNESTGSLGTQGRLCNKTSEGMDGCELMCCGRGYDQFKTVQTERCHCKFHWCCYVKCKKCTEVVDQFACK
Which results are given for B5?
Incidence of explants expressing Nkx2.5 [1]: 97.5%; Incidence of explants expressing TnIc [1]: 85.9%

B6: BMP-4: BMP-4 expressed by implanted 293 cell pellets (protein, UniProt P12644 293-408, looked up)
Bone morphogenetic protein 4: SPKHHSQRARKKNKNCRRHSLYVDFSDVGWNDWIVAPPGYQAFYCHGDCPFPLADHLNSTNHAIVQTLVNSVNSSIPKACCVPTELSAISMLYLDEYDKVVLKNYQEMVVEGCGCR
With B6 as the molecule, how does the “Embryos with reversed heart looping” value ([6]; 293 cell pellets in left anterior paraxial mesoderm, stage 7, n=25) read?
Its value is 20%.

And the vMHC expression ([6]; cell pellets in presumptive anterior paraxial mesoderm, in situ hybridization)?
The vMHC expression was “failed to affect subsequent vMHC expression”.
